Data published in article PMC7504435, “Combined Protein- and Ligand-Observed NMR Workflow to Screen Fragment Cocktails against Multiple Proteins: A Case Study Using Bromodomains” (Molecules, 2020).
pKd: −log10 of the molar value.

Assays:
BPTF bromodomain = BPTF bromodomain (Homo sapiens, UniProt Q12830); conditions: cited from earlier work
PfGCN5 bromodomain = PfGCN5 bromodomain (Plasmodium falciparum, UniProt Q8IB67); assay: 1H-15N HSQC NMR titration with PfGCN5; assay type: binding; conditions: 1H-15N HSQC titration (Figure S14); read-out: Kd PfGCN5
PfGCN5 bromodomain, sequence (Q8IB67 entry or part of it): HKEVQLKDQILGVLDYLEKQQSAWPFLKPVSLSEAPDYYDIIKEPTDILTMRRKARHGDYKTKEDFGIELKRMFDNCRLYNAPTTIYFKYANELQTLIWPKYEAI
Text: To cross-validate our findings, ^1H-^15N HSQC NMR was used to further examine the binding mode of 9 to PfGCN5 in the presence and absence of known ligands. The ^1H-^15N HSQC spectrum of PfGCN5 is unassigned. For ease of spectral interpretation, all resonances that were distinctly visible were assigned as 1-64. Fragment 9, GSK4027, and the acetylated peptide H2A.Z II K7,13ac were titrated against PfGCN5. At the highest ligand concentration, resonances with Δδ > x^− + 0.60*s, where x^− is the mean and s is the standard deviation at the highest concentration, were defined as significant. The correction factor of 0.60 is to compensate for only 60% of the resonances being usable for analysis. Titration of 9 with PfGCN5 gave linear and non-linear dose-dependent chemical shift perturbations. Of the five resonances with non-linear movement, only one (10) was considered to have significant movement. […] This affinity with the non-fluorine-labeled protein is similar but higher than the affinity determined by PrOF NMR. […]
^1H-^15N SOFAST HSQC.^1H-^15N SOFAST HSQC spectra were obtained on a Bruker 600 MHz Avance NEO with a CryoProbe 5 mm TCI (^1H, ^13C, ^15N, ^2H) w/ Z-gradient using Bruker’s IBS_SOFAST.x method with 32 scans, 0.05 s acquisition time, and 0.2 s delay. […] Data were processed with nmrDraw, nmrPipe, and NFRAM Sparky. Δδ^1H-^15N was calculated using Equation (3). […]

In the case of “H2A.Z II K7,13ac peptide N-terminal tail (from UniProt Q71UI9)”, the pKd (BPTF bromodomain) is given as 3.51.

Substance “H2A.Z II K7,13ac: acetylated N-terminal tail peptide of a histone protein (AGGKAGKDSGKAKAK; acetyl-Lys7 and acetyl-Lys13 in mature numbering (UniProt K8 and K14); C-terminal amide expected from NovaSyn TGR resin) [reference compound]” has a pKd (PfGCN5 bromodomain) of 3.17.
